Laboratory results reported in paper PMC5268773.
Where two headings read alike, the source gives them in different places.

Tests used:
[1] = target: fibrin (purified fibrin clots) (UniProt P02671)
[2] = target: plasminogen (Homo sapiens) (UniProt P00747); settings: cited from earlier work
plasmin (Homo sapiens) [3] = target: plasmin (Homo sapiens) (UniProt P00747); settings: cited from earlier work
plasmin (Homo sapiens) [4] = target: plasmin (Homo sapiens) (UniProt P00747); test: SPR; settings: cited from earlier work

Chain of streptokinase (P10520 27-440): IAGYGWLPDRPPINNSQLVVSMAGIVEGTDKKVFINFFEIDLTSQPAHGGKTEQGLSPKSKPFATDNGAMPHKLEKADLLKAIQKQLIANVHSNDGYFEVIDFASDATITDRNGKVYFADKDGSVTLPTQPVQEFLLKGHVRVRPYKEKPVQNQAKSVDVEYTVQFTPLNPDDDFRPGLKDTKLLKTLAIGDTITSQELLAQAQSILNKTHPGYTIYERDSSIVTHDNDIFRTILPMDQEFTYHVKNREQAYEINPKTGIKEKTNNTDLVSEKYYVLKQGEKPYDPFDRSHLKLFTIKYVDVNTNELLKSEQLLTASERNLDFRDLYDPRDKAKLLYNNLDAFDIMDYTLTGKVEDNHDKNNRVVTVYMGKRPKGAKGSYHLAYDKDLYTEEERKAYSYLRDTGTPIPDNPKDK
Chain of UniProt P02671 (P02671 36-866, chain 1 of 3): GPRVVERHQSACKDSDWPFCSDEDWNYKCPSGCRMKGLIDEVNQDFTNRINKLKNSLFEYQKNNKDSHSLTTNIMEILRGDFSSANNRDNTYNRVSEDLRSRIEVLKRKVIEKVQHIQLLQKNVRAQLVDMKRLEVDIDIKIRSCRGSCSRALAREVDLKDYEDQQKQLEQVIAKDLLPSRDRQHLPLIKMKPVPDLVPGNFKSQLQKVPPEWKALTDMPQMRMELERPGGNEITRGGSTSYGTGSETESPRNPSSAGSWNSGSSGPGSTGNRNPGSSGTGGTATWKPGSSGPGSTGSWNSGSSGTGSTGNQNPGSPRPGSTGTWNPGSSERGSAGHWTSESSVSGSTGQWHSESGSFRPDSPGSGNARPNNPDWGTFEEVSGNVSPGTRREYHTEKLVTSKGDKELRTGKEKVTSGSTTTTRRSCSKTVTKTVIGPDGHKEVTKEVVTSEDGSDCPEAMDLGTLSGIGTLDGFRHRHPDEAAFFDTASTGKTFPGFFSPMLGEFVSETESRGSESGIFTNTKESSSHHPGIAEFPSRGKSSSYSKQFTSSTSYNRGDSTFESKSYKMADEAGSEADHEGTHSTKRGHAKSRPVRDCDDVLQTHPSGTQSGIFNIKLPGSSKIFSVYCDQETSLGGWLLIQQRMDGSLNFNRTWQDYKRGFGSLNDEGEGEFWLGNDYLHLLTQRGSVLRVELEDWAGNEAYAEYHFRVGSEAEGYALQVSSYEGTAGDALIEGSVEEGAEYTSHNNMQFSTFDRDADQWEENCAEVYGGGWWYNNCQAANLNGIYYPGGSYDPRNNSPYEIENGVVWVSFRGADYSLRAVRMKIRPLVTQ
Chain of UniProt P02671 (P02675 45-491, chain 2 of 3, further chain): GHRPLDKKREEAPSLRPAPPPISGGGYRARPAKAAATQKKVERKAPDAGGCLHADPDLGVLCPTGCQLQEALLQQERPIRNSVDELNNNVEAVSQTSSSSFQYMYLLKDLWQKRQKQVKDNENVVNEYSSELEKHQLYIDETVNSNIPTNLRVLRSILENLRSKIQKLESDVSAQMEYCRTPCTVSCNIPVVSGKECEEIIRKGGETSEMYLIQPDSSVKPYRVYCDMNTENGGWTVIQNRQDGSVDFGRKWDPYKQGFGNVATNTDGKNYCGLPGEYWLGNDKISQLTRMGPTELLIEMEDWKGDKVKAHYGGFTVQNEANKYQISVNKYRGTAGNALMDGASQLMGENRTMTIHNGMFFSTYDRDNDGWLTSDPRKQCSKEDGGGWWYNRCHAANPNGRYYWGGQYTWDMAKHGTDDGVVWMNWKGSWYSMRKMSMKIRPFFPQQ
Chain of UniProt P02671 (P02679 27-453, chain 3 of 3, further chain): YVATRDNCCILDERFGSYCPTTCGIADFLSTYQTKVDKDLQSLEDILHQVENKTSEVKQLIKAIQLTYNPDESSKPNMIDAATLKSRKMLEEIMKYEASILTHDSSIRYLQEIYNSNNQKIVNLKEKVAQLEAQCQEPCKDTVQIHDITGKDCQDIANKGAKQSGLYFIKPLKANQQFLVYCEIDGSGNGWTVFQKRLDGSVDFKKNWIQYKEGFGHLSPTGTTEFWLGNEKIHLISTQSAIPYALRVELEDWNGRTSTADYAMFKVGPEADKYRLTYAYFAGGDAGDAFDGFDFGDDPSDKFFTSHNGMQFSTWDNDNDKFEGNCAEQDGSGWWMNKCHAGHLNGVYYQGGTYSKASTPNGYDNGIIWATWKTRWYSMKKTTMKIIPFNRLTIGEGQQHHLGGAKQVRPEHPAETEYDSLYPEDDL

Row | Substance | IC50 of tranexamic acid (TA) for inhibition of Pgn activation by rSK-M1GAS in fibrin [1] [nM] | Kd [2] [nM] | Kd (plasmin (Homo sapiens) [3]) [nM] | Kd (plasmin (Homo sapiens) [4]) [nM]
1 | recombinant streptokinase from the M1 type group A streptococcus, Streptococcus pyogenes strain SF370 (rSK-M1GAS) (natural protein) | 133000 |  |  | 
2 | streptokinase (from UniProt P10520) |  | 6 | 0.3 | 0.5
